Substitutions are numbered along the chain they refer to. In names and notes the source's numbering stands.

Data on 27 molecules can be found in patent publication US20190071490A1 (BETH ISRAEL DEACONESS MEDICAL CENTER, published 2019).

The chains are these.
B1: G1 variant M33 Fab (Fab, V domains shown)
VH: EVQLVESGGGLVQPGGSLRLSCAASGFTFSNYWISWVRQAPGKGLEWVAEIRSKSDNGATHYAEAVKGRFTISRDNAKNSLYLQMNSLRAEDTAVYYCTVYFDYGLAIQNYWGQGTLVTVSS
VL: EIVLTQSPATLSLSPGERATLSCKASKNVGTYVSWYQQKPGQAPRLLIYGASNRYLGIPARFSGSGSGTDFTLTISSLEPEDFAVYYCSQSYNYPYTFGQGTKLEIK
notes: Fab; constant domains as m1
B2: G1 variant M59 Fab (Fab, V domains shown)
VH: B1 VH with G58N, H61F
VL: B1 VL with G30D, L56S
notes: Fab; constant domains as m1
B3: G1 variant M44 Fab (Fab, V domains shown)
VH: B1 VH with G58E
VL: B1 VL with G30T, G50A, L56T
notes: Fab; constant domains as m1
B4: G1 variant M42 Fab (Fab, V domains shown)
VH: B1 VH with G58S, H61F
VL: B1 VL with G30T, G50A, L56T
notes: Fab; constant domains as m1
B5: G1 variant M49 Fab (Fab, V domains shown)
VH: B1 VH with G58Y, H61F
VL: B1 VL with G30T, G50A, L56T
notes: Fab; constant domains as m1
B6: G1 variant M37 Fab (Fab, V domains shown)
VH: B1 VH with K54E, N57G, G58S
VL: B1 VL with G30S
notes: Fab; constant domains as m1
B7: G1 variant M55 Fab (Fab, V domains shown)
VH: B1 VH with G58E, E64D
VL: B1 VL with G30A, L56S
notes: Fab; constant domains as m1
B8: G1 variant M58 Fab (Fab, V domains shown)
VH: B1 VH with G58I, H61F
VL: B1 VL with G30D, L56S
notes: Fab; constant domains as m1
B9: G1 variant M50 Fab (Fab, V domains shown)
VH: B1 VH with N57R, G58S
VL: B1 VL with G30T, G50A, L56T
notes: Fab; constant domains as m1
B10: G1 variant M47 Fab (Fab, V domains shown)
VH: B1 VH
VL: B1 VL with G30T, G50A, L56T
notes: Fab; constant domains as m1
B11: G1 variant M57 Fab (Fab, V domains shown)
VH: B1 VH with G58E
VL: B1 VL with G30D, L56S
notes: Fab; constant domains as m1
B12: G1 variant M48 Fab (Fab, V domains shown)
VH: B1 VH with G58L
VL: B1 VL with G30T, G50A, L56T
notes: Fab; constant domains as m1
B13: G1 variant M54 Fab (Fab, V domains shown)
VH: B1 VH with G58P
VL: B1 VL with G30A, G50A
notes: Fab; constant domains as m1
B14: G1 variant M41 Fab (Fab, V domains shown)
VH: B1 VH with G58S, E64D
VL: B1 VL with G30T, G50A, L56T
notes: Fab; constant domains as m1
B15: G1 variant M45 Fab (Fab, V domains shown)
VH: B1 VH with G58E, E64D
VL: B1 VL with G30T, G50A, L56T
notes: Fab; constant domains as m1
B16: G1 variant M56 Fab (Fab, V domains shown)
VH: B1 VH with G58S, H61F
VL: B1 VL with G30D, L56S
notes: Fab; constant domains as m1
B17: G1 variant M46 Fab (Fab, V domains shown)
VH: B1 VH with G58E, H61F
VL: B1 VL with G30T, G50A, L56T
notes: Fab; constant domains as m1
B18: G1 variant M39 Fab (Fab, V domains shown)
VH: B1 VH with K54E, G58Y
VL: B1 VL with G30T, G50A, L56T
notes: Fab; constant domains as m1
B19: G1 variant M35 Fab (Fab, V domains shown)
VH: B1 VH with N57S, G58S
VL: B1 VL
notes: Fab; constant domains as m1
B20: G1 variant M53 Fab (Fab, V domains shown)
VH: B1 VH
VL: B1 VL with G30T, L56I
notes: Fab; constant domains as m1; printed L561 read as L56I
B21: G1 variant M43 Fab (Fab, V domains shown)
VH: B1 VH with G58C
VL: B1 VL with G30T, G50A, L56T
notes: Fab; constant domains as m1
B22: G1 variant M36 Fab (Fab, V domains shown)
VH: B1 VH with K54E, N57A, G58S
VL: B1 VL with G30R
notes: Fab; constant domains as m1
B23: G1 variant M38 Fab (Fab, V domains shown)
VH: B1 VH with K54E, N57A, G58S
VL: B1 VL with G30W
notes: Fab; constant domains as m1
B24: G1 variant M34 Fab (Fab, V domains shown)
VH: B1 VH with G58T
VL: B1 VL
notes: Fab; constant domains as m1
B25: G1 variant M52 Fab (Fab, V domains shown)
VH: B1 VH with G58A
VL: B1 VL with G30T, L56I
notes: as for B20
B26: G1 variant M40 Fab (Fab, V domains shown)
VH: B1 VH with N57L, G58S
VL: B1 VL with G30T, G50A, L56T
notes: Fab; constant domains as m1
B27: G1 variant M51 Fab (Fab, V domains shown)
VH: B1 VH with N57G, G58S
VL: B1 VL with G30T, L56I
notes: as for B20

For the first assay, the target named is T1, human α-CGRP 1-37 (WT) (human, C-terminal amide; N-terminal biotin when captured on the SA chip; 125I-labelled in the radioligand assay).
T1 construct: also called α-human
T1 peptide: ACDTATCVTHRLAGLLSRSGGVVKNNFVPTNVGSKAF
The assay is described as follows: Biacore, 37°C, Fab over CGRP on SA chip. The method, then:
(§1) Biacore assay for affinity determination. […] All Biacore assays were conducted in HBS-EP running buffer (10 mM HEPES pH 7.4, 150 mM NaCl, 3 mM EDTA, 0.005% v/v polysorbate P20). CGRP surfaces were prepared by diluting the N-biotinylated CGRP to a concentration of less than 0.001 mg/mL into HBS-EP buffer and injecting it across the SA sensor chip using variable contact times. […] Samples were typically injected for 1 minute at 100 μL/min and dissociation times of at least 10 minutes were allowed. […] An entire titration series (typically generated in duplicate) was fit globally to a 1:1 Langmuir binding model using the BIAevaluation program. This returned a unique pair of association and dissociation kinetic rate constants (respectively, kₒₙ and koff) for each binding interaction, whose ratio gave the equilibrium dissociation constant (KD=koff/kₒₙ). […]
For orientation: In SPR one partner is held on a chip, and binding of the other changes the refractive index at the surface.
Broadly, the Kd is the concentration at which binding is half-saturated. A high value points to weaker binding. One may read the koff as the first-order rate constant of dissociation. High values mean a short-lived complex, low ones a long-lived complex. In turn, B1 showed a Kd of 4.69 nM and an off-rate constant (koff) of 0.00075 s⁻¹.

On to B2, for which the Kd stood at 3.28 nM and the koff worked out at 0.000524 s⁻¹.

Take B3: the dissociation constant (Kd) amounted to 2.05 nM and the koff stood at 0.00021 s⁻¹.

Molecule B4 registered a Kd of 2.61 nM and a dissociation rate constant (koff) of 0.000417 s⁻¹.

B5 came in with a Kd of 3.72 nM and a koff of 0.000595 s⁻¹.

B6: the affinity, expressed as Kd, was 1.41 nM and the koff was found to be 0.000226 s⁻¹.

With B7, the dissociation constant Kd is 2.99 nM and the koff came to 0.000478 s⁻¹.

Take B8: the affinity, expressed as Kd, was 12.2 nM and the off-rate (koff) worked out at 0.00195 s⁻¹.

As for B9, the Kd is 2.54 nM and the off-rate (koff) turned out to be 0.000406 s⁻¹.

As for B10, the dissociation constant (Kd) stood at 2.08 nM and the koff was 0.000332 s⁻¹.

On to B11, for which the Kd was 3.08 nM and the off-rate (koff) came to 0.000322 s⁻¹.

B12 had an equilibrium dissociation constant (Kd) of 5.26 nM and an off-rate (koff) of 0.000842 s⁻¹.

B13 had a dissociation constant Kd of 11.2 nM and a koff of 0.00179 s⁻¹.

As for B14, the dissociation constant Kd was determined as 1.31 nM and the koff was 0.00021 s⁻¹.

Consider B15, for which the Kd was 1.85 nM and the dissociation rate constant (koff) stood at 0.000211 s⁻¹.

The molecule B16 had a dissociation constant (Kd) of 2.99 nM and a koff of 0.000479 s⁻¹.

In turn, B17 came in with a Kd of 3.37 nM and a koff of 0.000539 s⁻¹.

B18 showed an equilibrium dissociation constant (Kd) of 2.66 nM and a koff of 0.000425 s⁻¹.

For the molecule B19, the Kd was found to be 2.12 nM and the koff stood at 0.000339 s⁻¹.

In the case of B20, the equilibrium dissociation constant (Kd) is 2.34 nM and the koff came out at 0.000374 s⁻¹.

Molecule B21 displayed a Kd of 1.64 nM and a koff of 0.000263 s⁻¹.

B22 returned a dissociation constant (Kd) of 1.49 nM and an off-rate (koff) of 0.000239 s⁻¹.

The molecule B23 came in with a Kd of 1.36 nM and a koff of 0.000218 s⁻¹.

B24 yielded a Kd of 4.04 nM and a koff of 0.000646 s⁻¹.

B25 showed a Kd of 1.76 nM and an off-rate constant (koff) of 0.000281 s⁻¹.

Molecule B26 yielded a dissociation constant Kd of 8 nM and a koff of 0.00128 s⁻¹.

In turn, B27 yielded a Kd of 0.82 nM and a koff of 0.000131 s⁻¹.

The next assay concerns the target T2, rat α-CGRP (1-37) (rat, C-terminal amide; N-terminal biotin when captured on the SA chip).
T2 construct: also called rat α (1-37); α-rat
T2 peptide: T1 peptide with A1S, D3N, N25D, K35E
The assay is described as follows: Biacore, 37°C, Fab over CGRP on SA chip. The procedure: as §1
In the case of B1, the Kd amounted to 512 nM and the koff came to 0.00922 s⁻¹.

For the molecule B2, binding was characterised by a dissociation constant (Kd) of 683 nM and the off-rate (koff) was 0.0123 s⁻¹.

With B3, the affinity, expressed as Kd, was 443 nM and the off-rate (koff) was found to be 0.00613 s⁻¹.

In the case of B4, the Kd was determined as 418 nM and the off-rate (koff) is 0.00752 s⁻¹.

Consider B5, for which the dissociation constant (Kd) was determined as 822 nM and the koff worked out at 0.0148 s⁻¹.

The molecule B6 displayed a Kd of 80.6 nM and a koff of 0.00145 s⁻¹.

B7: binding was characterised by a dissociation constant (Kd) of 325 nM and the dissociation rate constant (koff) was 0.00585 s⁻¹.

In the case of B8, the binding result is reported as “no binding”.

For B9, the Kd came to 294 nM and the koff turned out to be 0.0053 s⁻¹.

For B10, the affinity, expressed as Kd, was 457 nM and the koff came to 0.00823 s⁻¹.

Molecule B11 gave a Kd of 1200 nM and a koff of 0.0104 s⁻¹.

Regarding B12, the Kd was determined as 1910 nM and the koff stood at 0.0343 s⁻¹.

Regarding B13, the dissociation constant (Kd) is 120 nM and the koff amounted to 0.00216 s⁻¹.

Molecule B14 registered a dissociation constant Kd of 252 nM and a koff of 0.00453 s⁻¹.

Turning to B15, the Kd is 259 nM and the koff came out at 0.00558 s⁻¹.

Molecule B16 had a Kd of 519 nM and a koff of 0.00935 s⁻¹.

As to B17, the Kd worked out at 163 nM and the koff is 0.00294 s⁻¹.

The molecule B18 yielded a Kd of 553 nM and an off-rate constant (koff) of 0.00995 s⁻¹.

In turn, B19 displayed a dissociation constant (Kd) of 222 nM and an off-rate (koff) of 0.00399 s⁻¹.

B20 had a Kd of 106 nM and a koff of 0.00191 s⁻¹.

In turn, B21 registered a Kd of 252 nM and an off-rate (koff) of 0.00453 s⁻¹.

The molecule B22 showed an equilibrium dissociation constant (Kd) of 266 nM and a koff of 0.00479 s⁻¹.

Molecule B23 yielded a Kd of 284 nM and an off-rate (koff) of 0.00511 s⁻¹.

B24 returned a dissociation constant Kd of 121 nM and a dissociation rate constant (koff) of 0.00217 s⁻¹.

B25 registered an equilibrium dissociation constant (Kd) of 127 nM and an off-rate (koff) of 0.00229 s⁻¹.

In turn, B26 registered a Kd of 20000 nM and a koff of 0.36 s⁻¹.

In the case of B27, the Kd was found to be 65.6 nM and the off-rate constant (koff) stood at 0.00118 s⁻¹.
